± gives the uncertainty stated by the source.

Among the data in the supplement of paper PMC12042874 are amyloid nucleation score values, retold here.

This data set is described as follows: amyloid nucleation score (Sup35N fusion, yeast selection) (log enrichment); library NNK2; higher = more nucleation; inactive = no reads after selection. The method, boiled down:
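The nucleation score, computed with DiMSum, is the log enrichment of output over input reads, centred on the mode score of non-aggregating sequences. Sequences with under 100 input reads were dropped. Reads were generated by Illumina sequencing of plasmid inserts from psi-negative yeast with Sup35N fused to peptides of 20 random codons, induced with 100 μM copper sulfate for 24 hours and grown 7 days at 30°C on medium lacking adenine and uracil.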

ELALGIHYPFNKLYDINKGC yielded an amyloid nucleation score of -1.5 ± 0.35.
Regarding PCRFTYRRWTG, the amyloid nucleation score was -0.496 ± 0.41.
The substance VILAIGNFSRI yielded an amyloid nucleation score of 3.08 ± 0.081.
Under DREWVYYCGYWECTMFRCIY stands 1.12 ± 0.16.
Under FGLSITECGWVVLCMVWVPR stands 0.246 ± 0.17.
For RVKLACTRLCWLSADFDGNL the value was 4.04 ± 0.079; for SVYMLRLNYYSFVVLRQTGA, -0.135 ± 0.79; for SLYCF, “inactive”.
IDWCFGRRENVGGHVRWRNG came in with an amyloid nucleation score of 1.48 ± 0.3.
As to DLWRY, the amyloid nucleation score is 0.102 ± 0.77.
The substance VNAPGTSYGYYVLNVQWGGW registered an amyloid nucleation score of 1.12 ± 0.26.
Under CNRESEWIECVRGFLEYANG stands 1.44 ± 0.11; under KSCSEV, -0.047 ± 0.35.
For TSFHYCCSR the value was 6.146 ± 0.03; for MAILYVVGWFVP, 0.148 ± 0.28.
In the case of LMDRLFMKCDGLAG, the amyloid nucleation score is 0.216 ± 0.53.
Under IETCKKAHRSKYTLFGLLLY stands -0.383 ± 0.63; under NVYVESSWVLARVIWRFYFD, -0.722 ± 0.62; under GVYWILFIAWLRKVRWYSDV, -0.144 ± 0.32.
Under KCMRFIL stands -0.087 ± 1; under HFWVLFMLEETQSKFYLQST, -0.923 ± 0.64; under WYKKATNSVLANVGQDFVVK, -0.41 ± 0.36.
Under YKEVWY stands -0.284 ± 0.45; under SVLTCKLK, “inactive”; under SYFHNHWFCLRQFRVDASWC, -0.047 ± 0.46.
In turn, LCTTNSLF had an amyloid nucleation score of -0.671 ± 0.38.
For FIYCVTFVDDCRYVINLRGT the value was 7.964 ± 0.079; for WIMNKANNCKCFIEDTNWS, 7.352 ± 0.044; for RDMLRQMNSYQEYLFVRLDN, -0.763 ± 1.1.
Under MSFRSRPGLDDGWMIRWRGR stands 0.446 ± 0.49.
In turn, NEHYGRTMTN returned an amyloid nucleation score of -0.064 ± 1.1.
Under VTDRNIRLDPVALKHASVYG stands -0.368 ± 0.38; under SLFRVKGAVLEVLVPRMLLY, 0.51 ± 0.41; under TSRWDWIINSVRHIYWFSCF, 4.26 ± 0.12.
Under GIVVSIMHGIDSYGAIY stands -0.395 ± 0.39.
In the case of KLGTLLSFPTVINVANMIQI, the amyloid nucleation score was 3.8 ± 0.081.
For GDTVRRLRLEHKSVDLMIQY the value was 3.73 ± 0.087; for HRRSFGSQMYL, “inactive”.
The substance AYGVIGWCWSYGERNWVHVR came in with an amyloid nucleation score of 0.377 ± 0.49.
With RVLSGRLTTNVDARGCELDR, the amyloid nucleation score came to 1.3 ± 0.29.
For FFVKNASSSFFLLKRLSWT the value was -0.59 ± 1.1; for EYSRVLTGVFLIQSYCKFGN, -0.219 ± 0.2.
For SIWINFLNLWYQCFISSILG the value was “inactive”; for SFQCSWIG, 3.04 ± 0.088.
For the substance LVYFKRRLPTRLIANRRMNG, the amyloid nucleation score was -0.845 ± 0.76.
In turn, DKLVRWHLGMLIGGRGSCLF gave an amyloid nucleation score of 0.294 ± 0.8.
Under ERTMF stands 0.396 ± 0.3; under GWQGTLVNCLEDYVCYVCHA, 5.34 ± 0.058.
For GWPHKVEFKVNDIFMIFSMM the value was 5.281 ± 0.034; for CTVCITKGWLMHVWYYAYRW, 0.902 ± 0.22.
Under FFTLVVTVLPRRFYRFNYR stands 0.043 ± 1; under TLFNMLDYSVVWYLFTSIHR, -1.44 ± 1.1.
Consider CSSFKSLIRLGTLNRRNRNE, for which the amyloid nucleation score came out at 3.68 ± 0.059.
For GMRADSYCVRVGWFLCQNIN the value was 7.002 ± 0.07.
The substance VGRGASRNFSCFSLVKFREK came in with an amyloid nucleation score of 3 ± 0.062.
For SYIGMNQNCFSEQLNNAQTG the value was 0.606 ± 0.18; for QQCLINVSSRLLAGVNACSM, 1.22 ± 0.34.
For QFGNVRLSS the value was 0.995 ± 0.53.
For LNAWQKEINDALSPLSYPDS the value was 0.274 ± 1.1; for CNRQAAMKAPSETCDVVACF, 4.52 ± 0.083; for SLKVHSWFGNIYSDFLLTSV, -0.55 ± 0.79.
The substance FSCFIIYVGQKTACNSNTAL returned an amyloid nucleation score of 4.57 ± 0.08.
In the case of NDSTLGRLSYNLRDLRSQKM, the amyloid nucleation score was -0.502 ± 0.79.
Under LYDIWEDGSITLFCYSYQHH stands 8.969 ± 0.037; under ILYLGHN, -1.61 ± 0.64; under NSEHTNLSSHLGNIRFINCL, 0.037 ± 0.79.
For IAKFTVMDFYGMVVAYSNCR the value was 1.12 ± 0.42; for VGKRIVHIFCVEFGSLMGC, “inactive”.
For SNPSVNLCRWIDACNSDLIT the value was 0.165 ± 1; for AHKKRDMWLRKPGL, 1.68 ± 0.53.
PYGVSPWVRVVSCSIEGNWT: the amyloid nucleation score is -0.289 ± 0.25.
For SFCVLIRYNRFGAIS the value was 1.24 ± 0.22; for SPCFWMLPVKKPPACR, 5.082 ± 0.039.
Under HGGQEAVHLRRCGGYDMSKA stands 0.451 ± 0.42; under FLSSIGHLF, 3.89 ± 0.12.
Under KRKFRMWSQNIFLKVGNILA stands -1.47 ± 0.55; under GTFIGVNLN, “inactive”.
In turn, FTGYRAISASLGTYCLKSCG displayed an amyloid nucleation score of -0.245 ± 0.76.
Under MFMSQIPYQCGVKSNSVISK stands -0.357 ± 0.49; under ASCVVRGQYAQMVYCWRTLG, -0.072 ± 0.23; under QGTRAYQSKALTVSIMLMLV, 3.45 ± 0.096.
For SASQDATPHGCGIGISLNTR the value was 2.79 ± 0.068; for LILTCPCMCRFYVWGSTQYR, -0.313 ± 0.39; for VHCCFGACGCSSWRLNLLAS, 0.092 ± 0.49.
For YLYKCNM the value was “inactive”.
In turn, DWLYMMKIARSPVVCRSRPS yielded an amyloid nucleation score of 0.38 ± 0.35.
Turning to LSYLML, the amyloid nucleation score is -1.03 ± 0.78.
Under TIYMMSRDFRF stands 4.748 ± 0.028; under VRQRNNWFTMVIVCVISVMA, 3.52 ± 0.13; under DYANELVA, 0.099 ± 0.25.
For PRTISSSRLMWRYVSYLVIV the value was “inactive”.
Under NGNTVVLGSLIFYKLVLVAS stands 5.64 ± 0.033.
With MTCRRCNNAMWSGLLRLKIY, the amyloid nucleation score is 2.97 ± 0.17.
Under RIRRVSERMSVFRTLHRTMW stands 5.01 ± 0.079.
Under GNLDDTSLYCLYSLVSSRCS stands 0.373 ± 0.29.
Take LNNSIYHLGKY: the amyloid nucleation score entry is “inactive”.
The substance GRFKITVTRYANVYSMLRVI displayed an amyloid nucleation score of 1.02 ± 0.49.
Under ENELSPRGCRGEPLA stands 0.536 ± 0.62; under MWSLRYTVGLEDCG, 0.897 ± 0.34.
Under NYRFVCWDYISWVMVWTSI stands “inactive”.
Under YLLLLIMDLFKGRACHPRHA stands “inactive”; under GVNARQGSHDLVLRIVR, 7.39 ± 0.075.
